In patent US7442773B2, “Universal peptide-binding scaffolds and protein chips” (The Board of Trustees of The University of Illinois, priority 2004, dated 2008) one finds Kd data, which are given here for one molecule.

This test addresses biotinylated HA306-318 peptide. In kind it is binding, influenza virus. As to conditions: 20 hours at 37° C., flow cytometry, estimated, read-out: apparent dissociation constant KD of the biotinylated HA306-318 peptide complex.

B1: DWP-7: evolved single-chain HLA-DR1 variant (α-linker-β) from library lib-αβ, SEQ ID NOs:35 and 36 (protein)
chain: RKEEHVITQAEFYLNPDQSGEFMFDFDGDEIFHVDMAKKETVWRLEEFGRFASFEAQGALANIAVDKANLEIMTKRSNYTPITNVPPEVTVLTNSPVELREPNVLICYIDKFTPPVVNVTWLRNGKPVTTGVSETVFLPREDHLFRKFHYLPFLPSTEDVYDCRVEHWGLDEPLLKHWEFNAPSPLPETTENLGGGGSGGGRSGGGGSGDTRPRFLWQHKFECHFFNGTERVRLLERCIYNQEESVRFDSDVGEYRAVTELGRPAAEYWNSQKDLLEQRRAAADTYCRHNYGVGESFTVRRRVEPKVTVYPSKTQPLQHHNLLVCSVSGFYPGSIEVRWFRNGQEEKAGVVSTGLIQNGDWTFQTLVMLETVPRSGEVYTCQVEHPSVTSPLTVEWRARSESAQSKLESRGPFEGKPIPNPLLGLDSTRTGHHHHHH
modifications: Sequence of mutant DWP-7
Regarding B1, the Kd was 5 µM.
